From US20030148377A1, “Binding compounds and methods for identifying binding compounds” (priority 2000, published 2003)

Experiments:
[1] = biological target: T1, ZAP-70 (Homo sapiens, UniProt P43403); experiment: Inhibition of tubulin phosphorylation by ZAP-70; format: biochemical; settings: tubulin (5 μM) as substrate; FIG. 1D; compared to peptide 4
T1 construct: made in house; host or cells: Sf9 cells (baculovirus)
T1 sequence (P43403 1-619): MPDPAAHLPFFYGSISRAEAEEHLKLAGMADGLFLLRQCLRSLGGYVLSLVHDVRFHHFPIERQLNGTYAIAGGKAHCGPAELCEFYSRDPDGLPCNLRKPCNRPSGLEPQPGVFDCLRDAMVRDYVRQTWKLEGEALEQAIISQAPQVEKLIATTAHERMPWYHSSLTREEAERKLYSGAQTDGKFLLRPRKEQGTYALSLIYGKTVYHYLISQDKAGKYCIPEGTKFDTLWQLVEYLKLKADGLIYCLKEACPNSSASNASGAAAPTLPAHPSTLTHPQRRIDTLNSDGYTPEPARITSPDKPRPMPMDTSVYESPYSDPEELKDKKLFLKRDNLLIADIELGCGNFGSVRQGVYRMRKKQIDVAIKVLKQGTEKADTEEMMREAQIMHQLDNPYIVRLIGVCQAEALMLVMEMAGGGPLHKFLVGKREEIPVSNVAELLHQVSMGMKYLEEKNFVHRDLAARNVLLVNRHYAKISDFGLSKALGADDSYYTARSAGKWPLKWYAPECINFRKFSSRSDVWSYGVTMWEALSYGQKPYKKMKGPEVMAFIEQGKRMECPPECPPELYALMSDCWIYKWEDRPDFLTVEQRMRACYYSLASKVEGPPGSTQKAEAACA
Description: FIG. 1A: A glutathione-S-transferase chimera of ZAP-70 was purified from Sf9 cells and assayed for its ability to phosphorylate tubulin in the presence of 0, 50, or 100 μM of peptide 1 (SEQ ID NO: 5) or peptide 2 (SEQ ID NO: 6). The assay was carried out in kinase buffer (5 mM MnCl2, 5 mM MgCl2, 25 mM Tris [pH 7.4]), 50 μM ATP, and […] [γ-^32P]ATP for 5 min at 30° C. ^32P-phosphorylated tubulin was separated on SDS-PAGE, visualized by autoradiography (inset), and quantitated using a molecular imager (Bio-Rad).
FIG. 1D: The ZAP-70 Tyr-kinase assay was as described above, using tubulin (5 μM) as substrate. […]
(§1) Synthetic peptides, tubulin, or GST-band III (construct kindly provided by A. Weiss, University of California, San Francisco) (Zhao and Weiss, 1996) were phosphorylated by ZAP-70-GST-fused protein in the presence or absence of the indicated amount of inhibitory peptides in the kinase buffer (10 mM MnCl2, 50 mM Tris [pH 7.4], 1 mM DTT), 100 μM ATP, and 5 μCi [γ-^32P]ATP for 5 min (or 10 min for GST-band-III) at 30° C. The amount of radioactivity incorporated into substrate peptide was determined using the phosphocellulose assay. […] Phosphorylated tubulin, GST-band III, and myelin basic protein were separated on SDS-PAGE, visualized by autoradiography, and quantitated using a molecular imager (Bio-Rad, Hercules, Calif.).

[2] = biological target: T1, ZAP-70; experiment: Inhibition of ZAP-70 phosphorylation of peptide 1 (phosphocellulose assay, Lineweaver-Burke plot); format: biochemical; settings: peptide 1 as substrate; FIG. 1B; compared to peptide 4
Description: FIG. 1B: ZAP-70 was also assayed for its ability to phosphorylate peptide 1 (10 μM) in the presence of 0, 10, or 50 μM of peptide 4 (SEQ ID NO: 9) or peptide 5 (SEQ ID NO: 10). Peptide phosphorylation was determined by spotting the reaction mixture on phosphocellulose and washing away the ^32P-ATP with a phosphate buffer. The polylysine tail of peptide 1 facilitates retention on the phosphocellulose (Songyang et al., 1996). The data are presented as the percentage of the activity present in the absence of inhibitory peptides. […]
as §1

[3] = biological target: T2, Lck-GST-fused protein (Homo sapiens, UniProt P06239); experiment: Inhibition of myelin basic protein phosphorylation by Lck; format: biochemical; settings: myelin basic protein (5 μM) as substrate; FIG. 1E; compared to peptide 4
T2 construct: made in house; host or cells: Sf9 cells
T2 sequence (P06239 whole entry, the tested form may be a part): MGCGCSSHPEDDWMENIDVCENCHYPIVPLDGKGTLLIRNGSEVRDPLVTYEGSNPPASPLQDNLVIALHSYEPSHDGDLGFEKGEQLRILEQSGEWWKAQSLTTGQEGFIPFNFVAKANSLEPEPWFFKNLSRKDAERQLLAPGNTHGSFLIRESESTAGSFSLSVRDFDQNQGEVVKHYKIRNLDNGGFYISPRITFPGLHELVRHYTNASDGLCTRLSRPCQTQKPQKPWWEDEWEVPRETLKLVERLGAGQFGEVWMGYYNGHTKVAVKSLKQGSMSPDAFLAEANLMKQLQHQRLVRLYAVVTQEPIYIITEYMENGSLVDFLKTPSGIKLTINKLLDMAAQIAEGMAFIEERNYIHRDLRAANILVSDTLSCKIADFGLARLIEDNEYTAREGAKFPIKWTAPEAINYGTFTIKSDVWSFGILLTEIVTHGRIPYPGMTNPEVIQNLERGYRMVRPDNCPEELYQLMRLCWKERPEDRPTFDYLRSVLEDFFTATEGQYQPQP
Description: FIG. 1E: A glutathione-S-transferase chimera of Lck was purified from Sf9 cells and assayed for the ability to phosphorylate myelin basic protein (5 μM) in the presence or absence of the same three peptides as used in FIG. 1D. The assay was carried out for 5 min at 30° C.
as §1, with “assay. Lck-GST-fused protein was purified from Sf9 cells. Myelin basic protein was phosphorylated by Lck-GST-fused protein in the presence or absence of inhibitory peptides in the kinase buffer (5 mM MnCl2, 5 mM MgCl2, 25 mM Tris [pH 7.4]), 50 μM ATP, and 5 μCi [γ-^32P]ATP for 5 min at 30° C.” for “assay.”

[4] = biological target: T3, Human ZAP-70-glutathione S-transferase (GST)-fused protein (human, UniProt P43403 1-619); experiment: comparison of ZAP-70 inhibition by peptide 4 and peptide 6, tubulin as substrate
T3 construct: the SH2 domains are spoken of as present; also called ZAP-70-GST fused protein; GST-ZAP-70; not shown: glutathione S-transferase (GST) fusion partner
T3 sequence (looked up): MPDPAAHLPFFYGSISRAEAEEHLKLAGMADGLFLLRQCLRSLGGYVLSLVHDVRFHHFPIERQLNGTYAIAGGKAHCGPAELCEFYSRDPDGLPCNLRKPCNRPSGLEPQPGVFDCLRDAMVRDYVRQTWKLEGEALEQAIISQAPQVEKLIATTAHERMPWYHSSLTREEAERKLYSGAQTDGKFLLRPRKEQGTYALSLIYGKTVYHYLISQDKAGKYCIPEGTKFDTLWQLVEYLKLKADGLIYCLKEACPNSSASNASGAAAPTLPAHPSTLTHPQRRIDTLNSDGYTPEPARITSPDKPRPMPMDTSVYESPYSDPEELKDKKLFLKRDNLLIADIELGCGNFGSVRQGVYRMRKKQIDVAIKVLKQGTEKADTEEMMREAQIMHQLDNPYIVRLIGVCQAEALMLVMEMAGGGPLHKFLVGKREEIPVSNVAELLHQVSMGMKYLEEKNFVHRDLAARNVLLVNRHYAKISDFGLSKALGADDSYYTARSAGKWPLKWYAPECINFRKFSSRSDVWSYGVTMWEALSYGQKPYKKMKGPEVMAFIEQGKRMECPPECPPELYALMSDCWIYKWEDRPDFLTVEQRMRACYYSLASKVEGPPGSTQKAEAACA

[5] = biological target: T4, peptide 1 (optimal ZAP-70 substrate, EEEEYFFII AKKK)
T4 chain: EEEEYFFIIAKKK

[6] = biological target: T5, peptide 2 (predicted optimal ZAP-70 binding peptide, KLILYLLLL AKKK)
T5 chain: KLILYLLLLAKKK

[7] = biological target: T6, peptide 3 (ELILYLLLL AKKK)
T6 chain: ELILYLLLLAKKK

[8] = substrate: CC[C@H](C)[C@H](NC(=O)[C@H](CC(C)C)NC(=O)[C@@H](N)CCC(=O)O)C(=O)N[C@@H](CC(C)C)C(=O)N[C@@H](Cc1ccc(O)cc1)C(=O)N[C@@H](CC(C)C)C(=O)N[C@@H](CC(C)C)C(=O)N[C@@H](CC(C)C)C(=O)N[C@@H](CC(C)C)C(=O)N[C@@H](C)C(=O)N[C@@H](CCCCN)C(=O)N[C@@H](CCCCN)C(=O)N[C@@H](CCCCN)C(=O)O; experiment: Kinetic parameters for the phosphorylation of synthetic peptides by ZAP-70 (phosphocellulose assay); format: biochemical, Human; settings: other: peptide as substrate, 100 μM ATP, 5 min at 30° C., average of three independent experiments
Description: (§2) Human ZAP-70-glutathione S-transferase (GST)-fused protein was expressed in Sf9 cells using baculovirus. In this study, we used GST-ZAP-70 expressed in Sf9 cells without coexpression of Lck for library screening and kinase assays because the substrate selectivity of partially activated ZAP-70 is higher than that of fully activated ZAP-70 in peptide library screening for their specific substrate motifs (unpublished results). ZAP-70-GST fused protein (600 μg) was purified by using glutathione-agarose beads. […]
as §1, with “Calif.). […]” for “Calif.).”

[9] = substrate: CC[C@H](C)[C@H](NC(=O)[C@H](CC(C)C)NC(=O)[C@@H](N)CCCCN)C(=O)N[C@@H](CC(C)C)C(=O)N[C@@H](Cc1ccc(O)cc1)C(=O)N[C@@H](CC(C)C)C(=O)N[C@@H](CC(C)C)C(=O)N[C@@H](CC(C)C)C(=O)N[C@@H](CC(C)C)C(=O)N[C@@H](C)C(=O)N[C@@H](CCCCN)C(=O)N[C@@H](CCCCN)C(=O)N[C@@H](CCCCN)C(=O)O; experiment: as above; format: biochemical, Human; settings: other: peptide as substrate, 100 μM ATP, 5 min at 30° C., average of three independent experiments
Description: as §2
as §1, with “Calif.). […]” for “Calif.).”

“KLILYLLLL [peptide 6, identical to peptide 4 except for Tyr replacing the Phe]” was tested, and the “ZAP-70 inhibitory effect (in words)” value [1] was “little effect on peptide binding to ZAP-70”.

In the case of “peptide 5: peptide 4 with deletion of the Lys at position −4 (LILYLLLL)”, the “ZAP-70 inhibitory effect (in words)” value [1] is reported as “less effective as an inhibitor of both kinases”, the “inhibitory ability on ZAP-70 (in words)” value [2] is reported as “dramatically reduced the inhibitory ability” and the “Lck inhibitory effect (in words)” value [3] is reported as “less effective as an inhibitor of both kinases”.

B1: peptide 6 (KLILYLLLL) (peptide)
peptide: KLILYLLLL
notes: Identical to peptide 4 except for Tyr replacing the Phe
B1: binds [4].

B2: ZAP-70-GST-fused protein (Homo sapiens) (protein)
chain: MPDPAAHLPFFYGSISRAEAEEHLKLAGMADGLFLLRQCLRSLGGYVLSLVHDVRFHHFPIERQLNGTYAIAGGKAHCGPAELCEFYSRDPDGLPCNLRKPCNRPSGLEPQPGVFDCLRDAMVRDYVRQTWKLEGEALEQAIISQAPQVEKLIATTAHERMPWYHSSLTREEAERKLYSGAQTDGKFLLRPRKEQGTYALSLIYGKTVYHYLISQDKAGKYCIPEGTKFDTLWQLVEYLKLKADGLIYCLKEACPNSSASNASGAAAPTLPAHPSTLTHPQRRIDTLNSDGYTPEPARITSPDKPRPMPMDTSVYESPYSDPEELKDKKLFLKRDNLLIADIELGCGNFGSVRQGVYRMRKKQIDVAIKVLKQGTEKADTEEMMREAQIMHQLDNPYIVRLIGVCQAEALMLVMEMAGGGPLHKFLVGKREEIPVSNVAELLHQVSMGMKYLEEKNFVHRDLAARNVLLVNRHYAKISDFGLSKALGADDSYYTARSAGKWPLKWYAPECINFRKFSSRSDVWSYGVTMWEALSYGQKPYKKMKGPEVMAFIEQGKRMECPPECPPELYALMSDCWIYKWEDRPDFLTVEQRMRACYYSLASKVEGPPGSTQKAEAACA
notes: made in house; host or cells: Sf9 cells (baculovirus)
For B2, the Km (µM) for phosphorylation of the synthetic peptide by ZAP-70 [5] was 40 µM, the Km (µM) for phosphorylation of the synthetic peptide by ZAP-70 [6] was 26 µM and the Km (µM) for phosphorylation of the synthetic peptide by ZAP-70 [7] was 188 µM. The “Km relative to peptide 2” value [7] was 7-fold higher Km than peptide 2, the Km [8] was 188 µM and the Km [9] was 26 µM.
